In paper PMC3956856, “Interaction of Kinase-Interaction-Motif Protein Tyrosine Phosphatases with the Mitogen-Activated Protein Kinase ERK2” (PLoS ONE, 2014):
“Also recorded” adds a separate entry of the source.

T1: STEPKIM peptide (STEP residues 213-229) (mouse, UniProt P54830 213-229)
T1 construct: STEP (PTPN5, striatal enriched protein tyrosine phosphatase), residues 213-229 (KIM); mouse is stated for the STEP 213-539 construct; source: synthetic peptide (Biosynthesis, Inc.), HPLC purified, >98% purity
T1 peptide (looked up): MGLQERRGSNVSLTLDM

T2: STEP KIMKIS peptide (STEP residues 213-256) (mouse, UniProt P54830 213-256)
T2 construct: STEP (PTPN5), residues 213-256 (KIM and KIS); mouse is stated for the STEP 213-539 construct; source: synthetic peptide (Biosynthesis, Inc.), HPLC purified, >98% purity
T2 peptide (looked up): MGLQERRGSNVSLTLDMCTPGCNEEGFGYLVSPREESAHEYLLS

T3: PTPSL KIMKIS (PTPSL residues 332-373) (human, UniProt Q15256 332-373)
T3 construct: PTPSL/PTPBR7 (PTPRR), residues 332-373 (KIM and KIS); human is stated for the PTPSL 332-655 construct; Recombinant, not synthetic; source: final SEC
T3 chain (looked up): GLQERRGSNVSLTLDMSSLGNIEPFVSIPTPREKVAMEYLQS

B1: PTPSL (residues 332-655, human) (domain or fragment, UniProt Q15256 332-655, looked up)
chain: GLQERRGSNVSLTLDMSSLGNIEPFVSIPTPREKVAMEYLQSASRILTRSQLRDVVASSHLLQSEFMEIPMNFVDPKEIDIPRHGTKNRYKTILPNPLSRVCLRPKNVTDSLSTYINANYIRGYSGKEKAFIATQGPMINTVDDFWQMVWQEDSPVIVMITKLKEKNEKCVLYWPEKRGIYGKVEVLVISVNECDNYTIRNLVLKQGSHTQHVKHYWYTSWPDHKTPDSAQPLLQLMLDVEEDRLASQGRGPVVVHCSAGIGRTGCFIATSIGCQQLKEEGVVDALSIVCQLRMDRGGMVQTSEQYEFVHHALCLYESRLSAET
notes: PTPSL/PTPBR7 (PTPRR, PTP STEP-like), human, residues 332-655 (KIM, KIS and catalytic domain); The results loosely call this construct 'full-length PTPSL'; the construct is residues 332-655; also called PTPBR7; PTPRR; source: final SEC
B2: extracellular signal-regulated kinase 2 (ERK2), unphosphorylated (enzyme, UniProt P63086 1-358, looked up)
chain: MAAAAAAGPEMVRGQVFDVGPRYTNLSYIGEGAYGMVCSAYDNLNKVRVAIKKISPFEHQTYCQRTLREIKILLRFRHENIIGINDIIRAPTIEQMKDVYIVQDLMETDLYKLLKTQHLSNDHICYFLYQILRGLKYIHSANVLHRDLKPSNLLLNTTCDLKICDFGLARVADPDHDHTGFLTEYVATRWYRAPEIMLNSKGYTKSIDIWSVGCILAEMLSNRPIFPGKHYLDQLNHILGILGSPSQEDLNCIINLKARNYLLSLPHKNKVPWNRLFPNADSKALDLLDKMLTFNPHKRIEVEQALAHPYLEQYYDPSDEPIAEAPFKFDMELDDLPKEKLKELIFEETARFQPGYRS
notes: ERK2 (extracellular signal-regulated kinase 2), unphosphorylated; also called MAPK; source: final SEC (Superdex 75 26/60)

Experiments:
ERK2 [1] = target: T4, ERK2 (Rattus norvegicus, UniProt P63086); experiment: Isothermal titration calorimetry with ERK2; type: binding
T4 construct: gene Mapk1; made in house
Protocol: The PTPSLKIM peptide (residues 331–348), STEPKIM (residues 213–229) and STEPKIMKIS (residues 213–256) were synthesized, HPLC purified and verified by mass spectrometry (MS) (>98% purity; Biosynthesis, Inc.). Expression and purification of ERK2 and PTPSLKIMKIS (residues 332–373) was carried out as previously described, [15]. PTPSL (residues 332–655, human), STEP (residues 213–539, mouse) and PSChimera (PTPSL residues 332–373 with STEP residues 257–539; gene synthesized by DNA 2.0) were expressed and purified using the protocol previously described in detail for STEPCAT (residues 244–539). The DUSP16 MAPK binding domain (residues 5–138, human) was expressed and purified as previously described. All purified proteins were stored at −80 °C until use at which point they were thawed and exchanged into the appropriate buffer using size exclusion chromatography (SEC; Superdex 75 26/60; GE Healthcare). The final protein buffer was dependent on the experiment performed. For ITC experiments, the final SEC purification was performed in ITC buffer (10 mM Tris pH 7.5, 150 mM NaCl, 0.1 mM EDTA, 0.5 mM TCEP); for SAXS experiments, the final SEC purification was performed in SAXS buffer (50 mM HEPES pH 6.8, 150 mM NaCl, 5 mM dithiothreitol). PTPSLKIM, STEPKIM and STEPKIMKIS peptides were solubilized in ITC buffer prior to ITC measurements.
ITC experiments were performed at 25 °C using a VP-ITC microcalorimeter (Microcal Inc.). Titrant (10 μL per injection) was injected into the sample cell over a period of 20 seconds with a 250 second interval between titrations to allow for complete equilibration and baseline recovery. 28 injections were delivered during each experiment and the solution in the sample cell was stirred at 307 rpm to ensure rapid mixing. To determine the thermodynamic parameters (ΔH, ΔS, ΔG) and binding constants (K) of the ERK2:PTPSLKIM, ERK2:PTPSL, ERK2:STEP and ERK2:PSChimera interactions, PTPSLKIM, PTPSL, STEP and PSChimera were titrated into ERK2. To determine the same parameters for the ERK2:STEPKIM, ERK2:PTPSLKIMKIS and ERK2:STEPKIMKIS interaction, ERK2 was titrated into the peptides. Titrants were chosen based on the amount of purified protein/peptide available for the experiment. For all titrations the concentrations were slightly varied to ensure independence of the Kd from the protein/peptide concentrations. Data were analyzed with a one-site binding model assuming a binding stoichiometry of 1∶1 using Origin 7.0 software. A nonlinear least-squares algorithm and the titrant and sample cell concentrations were used to fit the heat flow per injection to an equilibrium binding equation, providing values of the stoichiometry (n), change in enthalpy (ΔH) and binding constant (K). All data were repeated in triplicate.

[2] = target: B2; experiment: ITC; PTPSLKIM, PTPSL, STEP or PSChimera titrated into ERK2 in the cell; 25 °C; 10 mM Tris pH 7.5, 150 mM NaCl, 0.1 mM EDTA, 0.5 mM TCEP; one-site model; triplicate; settings: both partners purified
ERK2 [3] = target: T4, ERK2; experiment: SAXS of resting-state complexes with ERK2; settings: ERK2:PTPSL complex; 50 mM HEPES pH 6.8, 150 mM NaCl, 5 mM dithiothreitol
p38α = settings: values previously published, ref [14], [15], [17], [18]; cited from earlier work
Text: We used ITC measurements to determine the binding affinity of STEP and PTPSL for unphosphorylated ERK2 ( Table 1; Figure S1). […] This complex has a ∼3-times lower Kd (tighter binding) than the next tightest complex, ERK2:PTPSL, and a nearly 70-fold greater affinity than the weakest complex, p38α:HePTP [15]. Like STEP, PTPSL binds ERK2 more tightly (∼3.5-fold) than p38α. We also tested peptides that include the kinase specificity s ... || We also generated a chimeric protein in which we fused the PTPSLKIMKIS to STEPCAT (PSchimera; Figure 1A ). […] Thus, they only adopt a single conformation when they bind their respective MAPKs. This is different from the MAPK-binding domains (MKBD) of MAPK phosphatases (MKP; dual specificity phosphatases; DUSPs), [26]. In MKPs, the KIM sequence is part of a stable, folded domain and thus adopts a single, ordered conformation in both the unbound and MAPK-bound states, [28]. […] Our ... || (+ 1 further places)

ERK2 [4] = target: T4, ERK2; settings: structural model from cross-linking, MS and molecular modeling; ref [24]; cited from earlier work
Text: In this model, PTPSLCAT binds ERK2 in an orientation in which the catalytic site is positioned near the ERK2 phosphorylation loop. This is different from the p38 ... || Figure 3 Regulatory protein-MAPK interaction strengths. The binding strengths of each KIM-PTP (KIM peptides and KIM-containing MKBDs (in orange font), light blue; KIMKIS peptides, light purple; proteins, light pink) to p38α and ERK2 represented from weakest to tightest (largest Kd to smallest Kd) binding affinity; ‘^†’ indicates values previously published, [15], [17], [18]. KIM-PTP:MAPK complexes determined to be extended using SAXS written in normal text; KIM-PTP:MAPK complexes determined to be compact written in italics; *, compact nature of the ERK2-PTPSL complex determined by ...

[5] = target: T1, STEPKIM peptide (STEP residues 213-229); experiment: ITC; ERK2 titrated into STEPKIM, PTPSL KIMKIS or STEP KIMKIS in the cell; 25 °C; 10 mM Tris pH 7.5, 150 mM NaCl, 0.1 mM EDTA, 0.5 mM TCEP; one-site model; triplicate; settings: both partners purified
[6] = target: T2, STEP KIMKIS peptide (STEP residues …); experiment: as above; settings: both partners purified
[7] = target: T3, PTPSL KIMKIS (PTPSL residues 332-373); experiment: as above; settings: both partners purified

Row | relative binding to ERK2 (in words) (ERK2 [1]; ERK2, ITC) | tighter binding to ERK2 than the PTPSLKIM peptide (ERK2 [1]; ERK2, ITC, versus PTPSLKIM) | tighter binding to ERK2 than to p38α (fold difference in affinity) (ERK2 [1]; ITC Kd, ERK2 versus p38α) | TΔS (ERK2 [1]; unphosphorylated ERK2, ITC, 25 °C, 10 mM Tris pH 7.5, 150 mM NaCl, 0.1 mM EDTA, 0.5 mM TCEP, average and standard deviation, triplicate) | Kd [2] | dH [2] | dH [5] | dH [6] | dH [7] | Molecule | affinity for ERK2 compared with p38α (in words) (ERK2 [1]; ITC, ERK2 versus p38α) | aggregation of the ERK2:PTPSL complex in SAXS samples (ERK2 [3]) | Kd (p38α) | shape of the ERK2:PTPSL resting-state complex (in words) (ERK2 [4])
1 | more strongly than does HePTP | ~4 times | ~3.5 fold | -53.6 ± 8.79 kJ/mol | 0.108 µM | -93.3 kJ/mol | – | – | – | B1 | higher binding affinity for ERK2 than for p38α; also recorded: bind more strongly to ERK2 | persistently exhibited the typical hallmarks of aggregation | 0.382 ± 0.065 µM | compact, with ERK2 and PTPSL associating in a side-by-side manner
2 | – | – | – | – | – | – | -117 kJ/mol | -122 kJ/mol | -90.4 kJ/mol | B2 | – | – | – | –
